For the assay, the target named is hBCMA-41BB-CD3 CAR (CAR-PMC750). Kind of assay: FACS of CAR-T cells stained with biotinylated goat anti-mouse F(ab)'2 and PE-streptavidin, day 9 of expansion.
Chain of hBCMA-41BB-CD3 CAR (CAR-PMC750) (chain, as listed by the source): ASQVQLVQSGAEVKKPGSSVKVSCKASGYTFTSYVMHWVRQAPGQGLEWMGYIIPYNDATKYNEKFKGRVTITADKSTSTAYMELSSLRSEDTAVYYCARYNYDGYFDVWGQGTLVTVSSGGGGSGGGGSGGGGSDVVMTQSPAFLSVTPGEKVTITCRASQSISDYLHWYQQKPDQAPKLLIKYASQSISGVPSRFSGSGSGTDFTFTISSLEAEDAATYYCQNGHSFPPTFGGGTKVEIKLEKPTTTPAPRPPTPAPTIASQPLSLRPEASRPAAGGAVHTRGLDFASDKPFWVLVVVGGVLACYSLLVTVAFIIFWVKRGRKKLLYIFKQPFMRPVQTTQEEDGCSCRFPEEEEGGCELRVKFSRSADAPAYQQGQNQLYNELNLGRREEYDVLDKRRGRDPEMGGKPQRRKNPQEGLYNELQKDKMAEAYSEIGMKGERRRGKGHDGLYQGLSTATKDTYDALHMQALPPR

Turning to “biotin-conjugated goat anti-mouse F(ab)'2 (antibody)”, the percent CAR-positive cells is above 70%.
